In the nanobody polyreactivity screen of Harvey et al. (2022):

Assay: yeast display, Sf9 membrane polyspecificity reagent, FACS + sequencing; frameworks hold sequencing errors
Summary of the method: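 A synthetic nanobody library was expressed on Saccharomyces cerevisiae BJ5465 by galactose induction for 36–48 hours. The library was stained for 1 hour at 4 °C with 10% biotinylated, detergent-solubilized Sf9 membrane reagent and enriched with streptavidin microbeads before FACS. Low and high (top ~1%) gates were set on anti-HA fluorescence for expression and streptavidin fluorescence for reagent binding, and each polyreactivity label reflects the gate of origin.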

With “QVQLVESGGGLVQEGGSLRLSCAASGSIFGGYALGWYRQAPGKERELVAAITWRGGRTYYADSVKGRFTISRDNAKNTVYLQMNSMKPEDTAVYYCNAVGSYRLYDYWGQGTQVTVSS” the “polyreactivity (PSR sort gate)” value was “high polyreactivity”.

For “QVQLVESGGGLVQAGGSLRLSCAASGRTFAINVMGWYRQAPGKEMELVASIRGRGGRTNYADSVKGRFTISRDNAKNSVYLQMNSLKPEDTAVYYCAAAYTGGGQYEYEYWGQGTQVTVSS”, the “polyreactivity (PSR sort gate)” value was “high polyreactivity”.

In the case of “QVQLVESGGGLVQAGGSLRLSCAASGRIFGYYAMGWYRQAPGKERELVAAIYSGGSTYYADSVKGRFTISRDNAKNTVYLQMNSLKPEDTAVYYCAAYYYGWYTPSQSPKYDYWGQGTQVTVSS”, the “polyreactivity (PSR sort gate)” value is reported as “high polyreactivity”.

With “QVQLVESGGGLVQAGGSLRLSCAASGSIFYAYALGWYRQAPGKERELVAVISRGGITNYADSVKGRFTISRDNAKNTVYLQMNSLKPEDNAVYYCAAATSACGYLRRYGYWGQGTQVTVSS” the “polyreactivity (PSR sort gate)” value was “low polyreactivity”.

In the case of “QVQLVESGGGLVQAGGSLRLSCAASGSTFWYYAMGWYRQAPGKERELVASITYSGGSTYYADSVKGRFTISRDNAKNTVSLQMNSLKPEDTAVYYCAAEGYYSNYHYWGQGTQVTVSS”, the “polyreactivity (PSR sort gate)” value is reported as “low polyreactivity”.

With “QVQLVESGGGLVQAGGSLRLSCAASGRISDVYAMGWYRQAPGKERELVAVISWRGGTTRYADSVKGRFTISRDNAKNTVYLQMNSLKAEDTAVFYCAAKTVLWGQGTQVTVSS” the “polyreactivity (PSR sort gate)” value was “high polyreactivity”.

In the case of “QVQLVESGGGLFQAGGSLRLSCAASGFTFIPYTMGWYRQAPGKERELVASIISGGSTNYADSVKGRFTISRDNAKNTVYFQMKSLKPEDTAVYYCAAVYFYYCYGWYYYWGQGTQVTVSS”, the “polyreactivity (PSR sort gate)” value is reported as “high polyreactivity”.

With “QVQLVESGGGLVQAGGSLRLSCAASGIIFQTYAMGWYRQAPGKERELVAAISRSGGSTYYADSVKGRFTISRDNAKNTVYLQMNSLKPEDTAVYYCAAYGYHVNWLKGNYWGQGTQVTVSS” the “polyreactivity (PSR sort gate)” value was “high polyreactivity”.

With “QVQLVESGGGLVQAGGSLRLSCAASGFIYRDYVMGWYRQAPEKERELVAAISYRGGSTNYADSVKGRFTISRDNAMNTVFLQMNSLKPEDTSVYYCAADQVHKREYEYWGQGTQVTVSS” the “polyreactivity (PSR sort gate)” value was “low polyreactivity”.

In the case of “QVHLVESGGGLVQAGGSLRLSCAASGRTFPYNAMGGYRQAPGKERELVAAISSGGSTTYADSVKGRFTISRDNAKNTVYLQMNSQKPEDTAVYYCATKYQRRPYRYYYWGQGTQVTVSS”, the “polyreactivity (PSR sort gate)” value is reported as “low polyreactivity”.

In the case of “QVQLVESGGGLVQAGGSLRLSCAASGRIFSAYAMGWYRQAPGKERELVAAITLSDGSTYYADSVKGRFTISRDNAKNTVYLQMNSLKPEDTAVYYCNADWYAYPYGYWGQGTQVTVSS”, the “polyreactivity (PSR sort gate)” value is reported as “low polyreactivity”.

With “QVQLVESGGGLVQARGSLRLSCAASGRTFKRYAMGWYRQAPGKERELVAAIAWSGTSTYYADSVKGRLTISRDNAKNTVYLQMNSLIPEDTAVYYCNTPHRSSSVRSYGYWGQGTQVSVSS” the “polyreactivity (PSR sort gate)” value was “high polyreactivity”.

For “QVQLVESGGGLVQAGGSLRLSCAASGFSFSDYPMGWYRQAPGKERELVAAISGSGGSTYYADSVKGRFTISRDTAKNSVYLQMNSLKPEDTSVYYCNKGYARRYASGYDYWGQGTQVTVSS”, the “polyreactivity (PSR sort gate)” value was “high polyreactivity”.

With “QVQLVESAGGLVQAGGSHRLSCAASASIFDGYAMGWYRQAPGKEREVVAAIRRSGVDTYYADSVKGRFTISRDNAKTTVYLQMNSLKPEDTAVDYCAADSYPSPNFEDNYWRQGTQVTVSS” the “polyreactivity (PSR sort gate)” value was “low polyreactivity”.

With “QVQLVESGGGLVQAGGSLRLSCAASGNMFYANAMGWYRQAPGKERELVAAISGSVCSTYADSVKGRFTISRDNAKNTVYLQMNSLKPEDTAVYYCNASVLDAIFYKSVGYDYWGQGTQVTVSS” the “polyreactivity (PSR sort gate)” value was “low polyreactivity”.

For “QVQLGESGGGLVQAGGRLRLSCAASGYTFGYYTMGWYRQAPGKERELVASIDSGGGTNYADSVKGRFTISRDNAKNTVYLQMNSVKAEDTAVYYCAAESPLYWVDDFESGWRYYYWGQGTQVTVSS”, the “polyreactivity (PSR sort gate)” value was “low polyreactivity”.

In the case of “QVQLVESGGGLVQAGGSLRLSCAASGSIFHAYAMGWYRQAPGKERELVAAINRGGRTNYADSVKGRFTISRDNAKNTVYLQMNSLKPEDTAVYYCAASYRWVTDKTHYYWGQGTQVTVSS”, the “polyreactivity (PSR sort gate)” value is reported as “low polyreactivity”.

For “QVQLVESGGGLVQAGGSLRLSCAASGRIFTYYAMGWYRQAPGKERELVAAINWGVVTTYYADSVKGRFTISRDNAKNTVYLQMNSLKPEDSAVYYCAADWFAANYYVNPVSALYYWGQGTQVTVSS”, the “polyreactivity (PSR sort gate)” value was “low polyreactivity”.

With “QVQLVESVGGLVQAGGSLRLSCAASVYTFPRYTMGWYRQAPGKERELVAAINWSGGSTYYADSVKRRFTISRDNAKNTVYLQMNSLKPEDTAVYYCNKAYVSRYDYWGQGTQVTVSS” the “polyreactivity (PSR sort gate)” value was “high polyreactivity”.

With “QVQLVESGGGLVQAGGSLRLSSAASGIIFFFYAMGWYRQAPGKERELVAVITGSGDSTFYADSVKGRFTISRDNAKNTVYLQMNSLKPEDTAVYYCNARQVSGGYYYWGQGTQVTVSS” the “polyreactivity (PSR sort gate)” value was “low polyreactivity”.

With “QVQLVESWGGLVQAGGSLRLSCAASGFTFVSYAMGWYRQAPGKERELVAAISKRGGSTSYADSVKGRFTISRDNAKNTVYLQMNSLKPEDTAVYYCYNRSYAWSPHVDYWGQGTQVTVSS” the “polyreactivity (PSR sort gate)” value was “high polyreactivity”.

With “QVQLVESGGGLVQAGGSLRLSCAASGSIFYRNAMGWYRQAPGKERELVAAISWSGASTYYADSVKGRFTISRDNAKNTVFLQLNSLKPEDTAVYYCATDDFWNVKFYAYYPEFDYWGQGTQVTVSS” the “polyreactivity (PSR sort gate)” value was “low polyreactivity”.

In the case of “EVQLVESGGGLDQAGGSLRLICAASARTFIWNAMGWYRQEPGKERDLVAAITRNGDSTYYADSVKGRFTISRDNAKNTVYLQMNRLKPEDTAVYYCAAYSRVFVYRTVGNYGWMNYWGQGTQVTVSS”, the “polyreactivity (PSR sort gate)” value is reported as “high polyreactivity”.

With “QDQLVESVGGLVQAGGSLRLSCAASGSIFNRYVMGCYSQAPGKERELVAAMSRRGGNTYYADSVKGRFTISRDNAKNTVYLQMNSLKPEATAVYYCAADYSYYYGYDYWGQGTQVTVSS” the “polyreactivity (PSR sort gate)” value was “high polyreactivity”.

For “QVQLVESGGGFVQAGGSRRLSCAASGRIFDDNAMGGYRPAPGKERELVAAISSGDYTKYADSVKGRFTISRDNSKNSVYLQMNSLKPEDTAVYYCAADIVSDSFYQPEYDYWGQGTQVTVSS”, the “polyreactivity (PSR sort gate)” value was “low polyreactivity”.

For “QVQLVESGGGLVQAGGSLRLSCAASGIIIWYNTMGWYRQAPGKEREFVARISRRVGSTYYADSVKGRFTISRDNAKNTVYLQMNSLKPEDTAVYYCAASPYQVRYQWGNRLDYWGQGTQVTVSS”, the “polyreactivity (PSR sort gate)” value was “high polyreactivity”.

With “QVQLVESGGGLVQAGGSLRLSCAASGSTFTYNAMGWYRQAPGKERELVASISSGTTTYYADSVKGRFTISRDNAKNTVYLQMNCLKPEDTAVYYCAVDSWSRVQGWLAHYYDYWGQGTQVTVSS” the “polyreactivity (PSR sort gate)” value was “low polyreactivity”.

For “HVQLVESGGGLVQAGGSLRLSCAASGLTFAQYAMGWYRQAPGNERALVAAITGSGGSTYYADSVKGRFTISRDNAKNTVYLQLNSLKPEDTAVYYCNKLFYRWRIVDKYYYWGQGTQVTVSS”, the “polyreactivity (PSR sort gate)” value was “high polyreactivity”.

In the case of “QAQLVESGGGLVQAGGSLRLSSAATGIIFGRYAMGWYRQAPGKERELVAAISTSGGSTYYADSVKGRFTISRDNAKNTVYLQMNSLKAEDTAVYYCAVDLFYKYDWGQGTQVTVSS”, the “polyreactivity (PSR sort gate)” value is reported as “high polyreactivity”.

In the case of “QVQLVESGGGLVQAGGSLRLSCAASGFTFRRYALGWYRQAPGKERELVAGITGRGGSTYYADSVKGRFTISRDNAKNTVYLQMNSLKPEDTAVYYCNKPRAARGYMTGQLDYWGQGTQVTVSS”, the “polyreactivity (PSR sort gate)” value is reported as “high polyreactivity”.

With “QVQLVESGGGLVQAGGSLRLSCAASGFIFSGYAMGWYRQAPGKERELVAAIRWNGGRTYYADSVKGRFTISRDNAKNTVYLQMNSLKPEDTAVYYCAAGSGRDYGYRYFFWRYDYWGQGTQVTVSS” the “polyreactivity (PSR sort gate)” value was “high polyreactivity”.

With “QVHLVESGGGLVQAGRSLRLSCAASGSIFYVYAMGWYRQAPGKETQLVATISTGGSTYYADSVKGRFTISRDNAKNTVYLQMNSLKPEDTAVYYCNAQFTPRYWGGYDSWGQGNQVTVSS” the “polyreactivity (PSR sort gate)” value was “low polyreactivity”.

With “QVQLVESGGGLVQAGGSLRISCAASGITASNAMGWNRQAPGKERELVAAISCRGGRTYYADSVKGRFTISRDNAKNTVYLQMNSLKPEDTAVYYCAKRYYTAQSRSDYWGQGTQVTVSS” the “polyreactivity (PSR sort gate)” value was “high polyreactivity”.

With “QVQLVESGGGLVQAGGSLRLSCAASGRTFYWYVMGWYRQAPGKERELVATITSGGSSNYADSVKGRFTISRDNAKNTVYLQRNSLKPEDTAVYYCNRDRLVRYEAEYDYWGQGTQVTVSS” the “polyreactivity (PSR sort gate)” value was “low polyreactivity”.

In the case of “QVQLVESGGGLVQAGGSLRLSCAASGSTFLVYAMGWSRQAPGKERELVAAIRGGGSTNYADSVKGRFTISRDNAKNTVYLQMNSLKPEDTGVYYCAAYLLYTPSMDYWGQGTQVTVSS”, the “polyreactivity (PSR sort gate)” value is reported as “low polyreactivity”.

In the case of “QVQLVESGGGLVQAGGSLRLSCAASGRIFAYNAMGWYRQAPGKERELVAAISWRVGCTYYADSVKGRFTISRDHAKNTVYLQMNSLKPEDTAVYYCNEAYYRHYQGDYWGQGTQVTVSS”, the “polyreactivity (PSR sort gate)” value is reported as “high polyreactivity”.

With “QVQLVESGGGLVQAGGSLRLSCAASGFIFRFYAMGWYRQAPGKERELVAGISSSGGSTYYADSLKGRFTISRDNAKTTVYLQMNSLKPEDTAVYYCNAKRSDQSSKTFNYWGQGTQVTVSS” the “polyreactivity (PSR sort gate)” value was “low polyreactivity”.

In the case of “QVQLVESGGGLVQAGGSLRLSCAASGRTFWKYAMGWYRQAPGKERELVAAISSSGGNTYYADSVKGRFTISRDNAKNSVYLQMNSLKPEDTAVYYCAARLPRGAYYYWGQGTQVTVSS”, the “polyreactivity (PSR sort gate)” value is reported as “high polyreactivity”.

With “QVQLVESGGGLVQAGGSLRLSCAASGRIFSYNAMGWYRQAPGKERELVAAISSDGSTYYADSVKGRFTISRDNAKNSVYLQMNSLKPEDTAVYYCAADTWRDGDDYWGQGTQVTVSS” the “polyreactivity (PSR sort gate)” value was “low polyreactivity”.

In the case of “QVQLVESGGGLVQAGGSLRLSCAASGSTFRQYAMGWYRQAPGKERELVAAIRGRDGSTYYADSVKGRFTISRDNAKNTVYLQMNSLKPEDTAVYYCNVVARGVSPGYDYWGQGTQVTVSS”, the “polyreactivity (PSR sort gate)” value is reported as “high polyreactivity”.

With “QVQLVESGGGLVQAGGTLRLSCAASGSTFGYPMGGYRQSPGKERELVAAMTSTGGSTYYADSVKGRFTISRDNAKITVYLQMNSQKPEDTAVYYCAADAYWIRSRFLYRIRYNYWGLGTQVTVSS” the “polyreactivity (PSR sort gate)” value was “high polyreactivity”.

With “QVQLEESGGGLVQAGGSLRLSCAASGFTFWRYGMGWYRQAPRKERELVASITSGGGTNYADSVKGRFTISRDNAKNTVYIQMNSLKPEDTAVYYCNAVFFYHGTKPAFISHDYWGQGTQVTVSS” the “polyreactivity (PSR sort gate)” value was “low polyreactivity”.

In the case of “QVQLVESGGGLVQAGGSLRLSCSASGTTFRYNAMGRYRQAPGKERQLVAAITSGGTTNYADSVKGRFTISRDNAKNTVYLQMNSLKPEDTAVYYCAKKRPGFLRYGSIGEFQYDYWGQGTQVTVSS”, the “polyreactivity (PSR sort gate)” value is reported as “low polyreactivity”.
